{"source": "IntAct's records for PubMed 35512704", "parents": {"B1": {"name": "Mothers against decapentaplegic homolog 4 (Homo sapiens), Q13485 (parent)", "chain": "MDNMSITNTPTSNDACLSIVHSLMCHRQGGESETFAKRAIESLVKKLKEKKDELDSLITAITTNGAHPSKCVTIQRTLDGRLQVAGRKGFPHVIYARLWRWPDLHKNELKHVKYCQYAFDLKCDSVCVNPYHYERVVSPGIDLSGLTLQSNAPSSMMVKDEYVHDFEGQPSLSTEGHSIQTIQHPPSNRASTETYSTPALLAPSESNATSTANFPNIPVASTSQPASILGGSHSEGLLQIASGPQPGQQQNGFTGQPATYHHNSTTTWTGSRTAPYTPNLPHHQNGHLQHHPPMPPHPGHYWPVHNELAFQPPISNHPAPEYWCSIAYFEMDVQVGETFKVPSSCPIVTVDGYVDPSGGDRFCLGQLSNVHRTEAIERARLHIGKGVQLECKGEGDVWVRCLSDHAVFVQSYYLDREAGRAPGDAVHKIYPSAYIKVFDLRQCHRQMQQQAATAQAAAAAQAAAVAGNIPGPGSVGGIAPAISLSAAAGIGVDDLRRLCILRMSFVKGWGPDYPRQSIKETPCWIEIHLHRALQLLDEVLHTMPIADPQPLD", "partner": "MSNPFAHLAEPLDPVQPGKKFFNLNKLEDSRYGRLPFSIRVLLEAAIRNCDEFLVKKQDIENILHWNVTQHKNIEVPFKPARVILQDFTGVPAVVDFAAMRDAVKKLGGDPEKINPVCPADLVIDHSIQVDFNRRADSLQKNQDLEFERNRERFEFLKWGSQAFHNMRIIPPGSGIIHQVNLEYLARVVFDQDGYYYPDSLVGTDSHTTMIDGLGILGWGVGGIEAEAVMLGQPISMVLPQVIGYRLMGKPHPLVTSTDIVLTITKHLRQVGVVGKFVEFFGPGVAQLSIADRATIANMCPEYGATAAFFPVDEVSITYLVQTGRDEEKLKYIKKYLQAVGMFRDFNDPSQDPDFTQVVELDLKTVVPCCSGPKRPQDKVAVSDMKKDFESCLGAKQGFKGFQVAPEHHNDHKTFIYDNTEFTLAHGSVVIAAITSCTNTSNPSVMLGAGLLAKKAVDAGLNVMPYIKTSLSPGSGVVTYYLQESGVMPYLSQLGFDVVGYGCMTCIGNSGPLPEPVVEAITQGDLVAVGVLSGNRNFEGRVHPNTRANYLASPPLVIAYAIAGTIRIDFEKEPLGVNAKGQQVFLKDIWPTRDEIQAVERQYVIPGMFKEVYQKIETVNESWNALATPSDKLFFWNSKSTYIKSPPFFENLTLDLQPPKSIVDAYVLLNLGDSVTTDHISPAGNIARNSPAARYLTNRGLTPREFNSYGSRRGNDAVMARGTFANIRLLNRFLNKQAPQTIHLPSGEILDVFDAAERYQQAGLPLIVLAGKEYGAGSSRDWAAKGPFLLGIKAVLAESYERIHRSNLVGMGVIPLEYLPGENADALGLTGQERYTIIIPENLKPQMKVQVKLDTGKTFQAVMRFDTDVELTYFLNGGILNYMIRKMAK"}, "B2": {"name": "Mothers against decapentaplegic homolog 4 (Homo sapiens), Q13485 (parent)", "chain": "B1 chain", "partner": "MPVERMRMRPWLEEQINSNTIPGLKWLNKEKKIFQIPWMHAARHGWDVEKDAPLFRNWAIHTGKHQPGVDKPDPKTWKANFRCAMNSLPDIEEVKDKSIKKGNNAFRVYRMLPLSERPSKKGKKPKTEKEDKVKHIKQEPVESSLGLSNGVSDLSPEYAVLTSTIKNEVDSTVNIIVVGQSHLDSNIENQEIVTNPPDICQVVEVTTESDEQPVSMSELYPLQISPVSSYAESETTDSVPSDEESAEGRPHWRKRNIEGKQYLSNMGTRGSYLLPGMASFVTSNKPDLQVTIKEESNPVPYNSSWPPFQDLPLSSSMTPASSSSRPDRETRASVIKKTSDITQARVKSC"}, "B3": {"name": "Mothers against decapentaplegic homolog 4 (Homo sapiens), Q13485 (parent)", "chain": "B1 chain", "partner": "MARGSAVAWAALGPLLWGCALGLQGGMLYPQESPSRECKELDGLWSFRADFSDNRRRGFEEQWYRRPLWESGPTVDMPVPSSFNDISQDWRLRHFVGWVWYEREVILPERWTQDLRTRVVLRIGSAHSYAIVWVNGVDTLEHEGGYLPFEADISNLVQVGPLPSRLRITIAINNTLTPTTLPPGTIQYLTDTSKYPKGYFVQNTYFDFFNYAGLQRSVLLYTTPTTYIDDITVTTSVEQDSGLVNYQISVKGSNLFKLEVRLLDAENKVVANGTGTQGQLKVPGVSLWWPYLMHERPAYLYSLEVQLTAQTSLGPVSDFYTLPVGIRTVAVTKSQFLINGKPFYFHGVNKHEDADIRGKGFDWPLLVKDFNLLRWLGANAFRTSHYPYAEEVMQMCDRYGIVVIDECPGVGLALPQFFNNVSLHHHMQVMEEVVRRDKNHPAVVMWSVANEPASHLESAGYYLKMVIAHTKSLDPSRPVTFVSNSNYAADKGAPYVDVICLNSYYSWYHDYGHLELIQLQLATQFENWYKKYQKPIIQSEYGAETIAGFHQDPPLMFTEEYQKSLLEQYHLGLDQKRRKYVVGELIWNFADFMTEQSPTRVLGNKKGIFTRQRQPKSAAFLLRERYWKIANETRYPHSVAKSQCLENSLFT"}, "B4": {"name": "Mothers against decapentaplegic homolog 4 (Homo sapiens), Q13485 (parent)", "chain": "B1 chain", "partner": "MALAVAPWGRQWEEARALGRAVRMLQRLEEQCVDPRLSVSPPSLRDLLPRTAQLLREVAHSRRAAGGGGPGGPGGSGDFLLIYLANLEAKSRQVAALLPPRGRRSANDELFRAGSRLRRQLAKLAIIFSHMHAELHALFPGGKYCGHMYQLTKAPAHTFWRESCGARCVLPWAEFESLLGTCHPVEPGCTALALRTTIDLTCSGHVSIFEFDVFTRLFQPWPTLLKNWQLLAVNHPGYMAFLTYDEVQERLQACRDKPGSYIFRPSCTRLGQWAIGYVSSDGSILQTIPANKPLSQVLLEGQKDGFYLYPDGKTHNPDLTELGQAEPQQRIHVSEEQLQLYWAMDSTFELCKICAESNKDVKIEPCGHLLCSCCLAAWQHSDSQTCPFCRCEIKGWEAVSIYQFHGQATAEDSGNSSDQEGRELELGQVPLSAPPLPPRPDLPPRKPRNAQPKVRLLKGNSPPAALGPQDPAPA"}}, "data": [{"variants_of": "B1", "details": "with acohc_human ACO1, P21399", "values": [{"variant": "G386D", "effect of a mutation on the interaction": "with no effect"}]}, {"variants_of": "B1", "details": "with acohc_human ACO1, P21399", "remark": "another data set of the same source", "values": [{"variant": "D351H", "effect of a mutation on the interaction": "with no effect"}]}, {"variants_of": "B1", "details": "with acohc_human ACO1, P21399", "remark": "another data set of the same source", "values": [{"variant": "R361H", "effect of a mutation on the interaction": "with no effect"}]}, {"variants_of": "B1", "details": "with acohc_human ACO1, P21399", "remark": "another data set of the same source", "values": [{"variant": "R361C", "effect of a mutation on the interaction": "with no effect"}]}, {"variants_of": "B2", "details": "with irf2_human IRF2, P14316", "values": [{"variant": "R361C", "effect of a mutation on the interaction": "with no effect"}]}, {"variants_of": "B2", "details": "with irf2_human IRF2, P14316", "remark": "another data set of the same source", "values": [{"variant": "G386D", "effect of a mutation on the interaction": "with no effect"}]}, {"variants_of": "B2", "details": "with irf2_human IRF2, P14316", "remark": "another data set of the same source", "values": [{"variant": "D351H", "effect of a mutation on the interaction": "with no effect"}]}, {"variants_of": "B3", "details": "with bglr_human GUSB", "values": [{"variant": "D351H", "effect of a mutation on the interaction": "with no effect"}]}, {"variants_of": "B3", "details": "with bglr_human GUSB", "remark": "another data set of the same source", "values": [{"variant": "G386D", "effect of a mutation on the interaction": "with no effect"}]}, {"variants_of": "B3", "details": "with bglr_human GUSB", "remark": "another data set of the same source", "values": [{"variant": "R361C", "effect of a mutation on the interaction": "with no effect"}]}, {"variants_of": "B3", "details": "with bglr_human GUSB", "remark": "another data set of the same source", "values": [{"variant": "R361H", "effect of a mutation on the interaction": "with no effect"}]}, {"variants_of": "B4", "details": "with cblc_human CBLC", "values": [{"variant": "G386D", "effect of a mutation on the interaction": "with no effect"}]}]}
